Source: patent US20240360228A1 (BIOLEGEND, published 2024)

Tests used:
[1] = target: T1, human chemokine (C-C motif) receptor 8 (CCR8) (human, UniProt P51685 1-355); experiment: flow cytometry blocking, human PBMC, CD3+ gate; % cells stained by competitor PE-L263G8 after block
T1 construct: also called hCCR8
Experimental: (§1) For blocking studies, 100 μL of the cell suspension were incubated with 10 μg purified isotype control, AB1, AB2, AB3, AB4, AB5, AB8, AB9, AB10, AB11, AB12, AB13, AB14, AB15, and Commercial ABI antibodies, or isotype control, as blocking agents.
(§2) After incubation with the blocking agent, the cells were incubated with 0.25 μg of the indicated PE-conjugated antibody plus anti-human CD4 APC or anti-human CD3 for another 15 minutes in the dark and then washed 2 times with Cell Staining Buffer, and acquired in a FACSCanto II flow cytometer (BD Biosciences); the data was analyzed using FCS Express (De Novo Software); MFI correspond to the CCR8+ CD4+ lymphocytes or CCR8+ CD3+ lymphocytes.

[2] = target: T1, human chemokine (C-C motif) receptor 8 …; experiment: flow cytometry blocking, human PBMC, CD3+ gate; competitor PE-AB7
Experimental: as §1, §2
(§3) Percentage original MFI was calculated by dividing the MFI of samples blocked with AB1, AB2, AB3, AB4, AB5, AB6, AB7, AB8, AB9, AB10, AB11, AB12, AB13, AB14, AB15, and Commercial ABI antibodies, by the MFI of samples blocked with the corresponding isotype control. This value was subtracted from 100 to get a blocking percentage. The formula is shown below: […]

[3] = target: T1, human chemokine (C-C motif) receptor 8 …; experiment: flow cytometry blocking, human PBMC, CD3+ gate; competitor PE-L263G8
[4] = target: T1, human chemokine (C-C motif) receptor 8 …; experiment: flow cytometry blocking, human PBMC, CD3+ gate; % cells stained by competitor PE-AB10 after block
Experimental: as §1, §2

[5] = target: T1, human chemokine (C-C motif) receptor 8 …; experiment: flow cytometry blocking, human PBMC, CD3+ gate; competitor PE-AB11
Experimental: as §1, §2, §3

[6] = target: T1, human chemokine (C-C motif) receptor 8 …; experiment: flow cytometry blocking, human PBMC, CD3+ gate; % cells stained by competitor PE-AB14 after block
Experimental: as §1, §2

[7] = target: T1, human chemokine (C-C motif) receptor 8 …; experiment: flow cytometry blocking, human PBMC, CD3+ gate; % cells stained by competitor PE-433H after block
Experimental: as §1, §2

[8] = target: T1, human chemokine (C-C motif) receptor 8 …; experiment: flow cytometry blocking, human PBMC, CD3+ gate; competitor PE-AB5
Experimental: as §1, §2, §3

[9] = target: T1, human chemokine (C-C motif) receptor 8 …; experiment: flow cytometry blocking, human PBMC, CD3+ gate; % cells stained by competitor PE-AB12 after block
Experimental: as §1, §2

[10] = target: T1, human chemokine (C-C motif) receptor 8 …; experiment: flow cytometry blocking, human PBMC, CD3+ gate; competitor PE-AB12
Experimental: as §1, §2, §3

[11] = target: T1, human chemokine (C-C motif) receptor 8 …; experiment: flow cytometry blocking, human PBMC, CD3+ gate; % cells stained by competitor PE-AB15 after block
Experimental: as §1, §2

[12] = target: T1, human chemokine (C-C motif) receptor 8 …; experiment: flow cytometry blocking, human PBMC, CD3+ gate; competitor PE-AB13
Experimental: as §1, §2, §3

[13] = target: T1, human chemokine (C-C motif) receptor 8 …; experiment: flow cytometry blocking, human PBMC, CD3+ gate; competitor PE-AB14
Experimental: as §1, §2, §3

[14] = target: T1, human chemokine (C-C motif) receptor 8 …; experiment: flow cytometry blocking, human PBMC, CD3+ gate; % cells stained by competitor PE-AB8 after block
Experimental: as §1, §2

[15] = target: T1, human chemokine (C-C motif) receptor 8 …; experiment: flow cytometry blocking, human PBMC, CD3+ gate; competitor PE-433H
[16] = target: T1, human chemokine (C-C motif) receptor 8 …; experiment: flow cytometry blocking, human PBMC, CD3+ gate; competitor PE-AB6
Experimental: as §1, §2, §3

[17] = target: T1, human chemokine (C-C motif) receptor 8 …; experiment: flow cytometry blocking, human PBMC, CD3+ gate; competitor PE-AB15
Experimental: as §1, §2, §3

[18] = target: T1, human chemokine (C-C motif) receptor 8 …; experiment: flow cytometry blocking, human PBMC, CD3+ gate; % cells stained by competitor PE-AB7 after block
Experimental: as §1, §2

[19] = target: T1, human chemokine (C-C motif) receptor 8 …; experiment: flow cytometry blocking, human PBMC, CD3+ gate; competitor PE-AB10
Experimental: as §1, §2, §3

[20] = target: T1, human chemokine (C-C motif) receptor 8 …; experiment: flow cytometry blocking, human PBMC, CD3+ gate; % cells stained by competitor PE-AB6 after block
Experimental: as §1, §2

[21] = target: T1, human chemokine (C-C motif) receptor 8 …; experiment: flow cytometry blocking, human PBMC, CD3+ gate; competitor PE-AB8
Experimental: as §1, §2, §3

[22] = target: T1, human chemokine (C-C motif) receptor 8 …; experiment: flow cytometry blocking, human PBMC, CD3+ gate; % cells stained by competitor PE-AB11 after block
Experimental: as §1, §2

[23] = target: T1, human chemokine (C-C motif) receptor 8 …; experiment: flow cytometry blocking, human PBMC, CD3+ gate; % cells stained by competitor PE-AB5 after block
Experimental: as §1, §2

[24] = target: T1, human chemokine (C-C motif) receptor 8 …; experiment: flow cytometry blocking, human PBMC, CD3+ gate; % cells stained by competitor PE-AB13 after block
Experimental: as §1, §2

T1 sequence (P51685 whole entry): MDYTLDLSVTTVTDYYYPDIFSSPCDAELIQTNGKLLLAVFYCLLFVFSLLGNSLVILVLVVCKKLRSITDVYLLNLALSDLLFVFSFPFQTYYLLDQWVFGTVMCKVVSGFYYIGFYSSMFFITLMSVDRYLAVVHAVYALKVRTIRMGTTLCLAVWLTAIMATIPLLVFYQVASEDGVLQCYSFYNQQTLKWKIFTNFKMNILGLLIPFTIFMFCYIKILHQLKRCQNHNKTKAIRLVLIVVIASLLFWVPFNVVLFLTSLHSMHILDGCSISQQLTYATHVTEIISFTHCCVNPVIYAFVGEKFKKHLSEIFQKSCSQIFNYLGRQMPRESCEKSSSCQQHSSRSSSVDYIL

Binder	% Positive cells [1]	% Blocking [2]	% Blocking [3]	% Positive cells [4]	% Blocking [5]	% Positive cells [6]	% Positive cells [7]	% Blocking [8]	% Positive cells [9]	% Blocking [10]	% Positive cells [11]	% Blocking [12]	% Blocking [13]	% Positive cells [14]	% Blocking [15]	% Blocking [16]	% Blocking [17]	% Positive cells [18]	% Blocking [19]	% Positive cells [20]	other results
anti-CCR8 monoclonal antibody AB5 (antibody, V domains shown, Hybridoma monoclonal; also called antibody 5; clone 5) VH: QVQLKESGPGLVQPSQTLSLTCTVSGFSLTSYHVSWVRQPPGKGLEWMGVIWTGGSTTYNSLLKSRLSISRDISKSQVFLKMNSLQTEDTATYYCARGGTVVKGGFAYWGQGTLVTVSS VL: DIQMTQSPASLSASLEEIVTITCQASQDIGNRLSWYQQKPGKSPQLLIYGATSLADGVPSRFSGSRSGTQYSLKISRLQVEDIGIYYCLQAYSTPLTFGSGTKLEIK	7.17%	-7.14%	-22.1%	7.42%	-1.71%	6.47%	7.14%	84.9%	7.54%	-0.13%	6.75%	-5.41%	9.26%	8.45%	-0.99%	96.1%	-2.58%	9.75%	-23.1%	0.32%	% Blocking [21]: 0.12%; % Positive cells [22]: 7.14%; % Positive cells [23]: 1.25%; % Positive cells [24]: 7.01%
anti-CCR8 monoclonal antibody AB7 (antibody, V domains shown, Hybridoma monoclonal; also called antibody 7; clone 7) VH: AVQLVESGGGLVQPKESLKISCAASGFTFSYAAMYWVRQTPGKGLEWVARIRTKPNNYATYYADSVKGRFTISRDDSKSMVYLQMDNLKSEDTAMYYCNIMGITRGYYFDYWGQGVMVTVSS VL: DIQMTQSPSFLSASVGDRVTINCKASQNINRYLNWYQQQLGEAPKLLIYNANNLQTGIPSRFSGSRSGTDFTLTISSLQPEDVATYFCLQHNSWPWTFGGGTKLELK	1.19%	83.8%	79.7%	0.53%	98%	0.26%	0.88%	-4.7%	0.05%	99.3%	0.85%	85.6%	96.3%	0.6%	87.5%	-0.24%	87.1%	1.47%	91.2%	8.3%	% Blocking [21]: 92.9%; % Positive cells [22]: 0.14%; % Positive cells [23]: 8.68%; % Positive cells [24]: 0.96%

Second part, led by results:

% Positive cells [1]	% Blocking [2]	% Blocking [3]	% Positive cells [4]	% Blocking [5]	% Positive cells [6]	% Positive cells [7]	% Blocking [8]	% Positive cells [9]	% Blocking [10]	% Positive cells [11]	% Blocking [12]	% Blocking [13]	% Positive cells [14]	% Blocking [15]	% Blocking [16]	% Blocking [17]	% Positive cells [18]	% Blocking [19]	% Positive cells [20]	Binder	other results
6.58%	83%	-12.1%	5.61%	-9.26%	6.4%	6.43%	7.24%	7.1%	5.71%	5.92%	2.41%	10.2%	1.25%	9.05%	12.4%	10%	1.55%	6.97%	7.25%	anti-CCR8 monoclonal antibody AB6 (antibody, V domains shown, also called antibody 6; clone 6) VH: QVQLKESGPGLVQPSQTLSLTCTVSGFSLTSYHVSWVRQPPGKGLEWMGVIWTGGSTTYNSLLKSRLSISRDISKSQVFLKMNSLQTEDTATYYCARGGTVVKGGFAYWGQGTLVTVSS VL: DIQMTQSPASLSASLEEIVTITCQASQDIGNRLSWYQQKPGKSPQLLIYGATSLADGVPSRFSGSRSGTQYSLKISRLQVEDIGIYYCLQAYSTPLTFGSGTKLEIK	% Blocking [21]: 85.2%; % Positive cells [22]: 7.67%; % Positive cells [23]: 7.69%; % Positive cells [24]: 6.49%
0.44%	6.48%	92.5%	0.65%	90.2%	0.11%	0.84%	-7.96%	0.05%	99.3%	0.07%	96.1%	98.5%	6.94%	88.1%	1.33%	98.9%	8.51%	89.2%	8.17%	anti-CCR8 monoclonal antibody AB8 (antibody, V domains shown, Hybridoma monoclonal; also called antibody 8; clone 8) VH: AVQLVESGGGLVQPKESLKISCAASGFIFSNAAMYWVRQAPGKGLQWVARIRTKPKNYATYYIDSVKGRFTISRDDSKSMVYLQMDNLKTEDTAMYYCNTMGLTRAYYFDYWGQGVMVTVSS VL: DIQMTQSPSFLSASVGDRVTINCKASQNINRYLNWYQQKLGEAPKLLIYNANSLQTGIPSRFSGSGSGTDFTLTIRSLQPEDVATYFCLQHNSWPWTFGGGTKLELK	% Blocking [21]: 18%; % Positive cells [22]: 0.69%; % Positive cells [23]: 8.95%; % Positive cells [24]: 0.26%
0.57%	50.1%	90.3%	0.15%	96%	0.27%	5.66%	-5.55%	0.46%	93.9%	0.29%	88.1%	96.2%	4.35%	19.9%	6.04%	95.6%	4.54%	97.5%	7.78%	anti-CCR8 monoclonal antibody AB10 (antibody, V domains shown, Hybridoma monoclonal; also called antibody 10; clone 10) VH: EVQLVETGGGLVQPKGSLKLSCAVSGFTFKTNAMNWVRQAPGKGLEWVARIRSKSNKYATYYADSVKDRFTISRDDSQSMLYLQMNNLKTEDTAMYYCVRGSEMGYYYAMDYWGQGTSVTVSS VL: DIVMTQAAPSVPVTPGESVSISCRSSKSLLHSNGNTYLYWFLQRPGQSPQLLIYRMSNLASGVPDRFSGSGSGTAFTLRISRVEAEDVGVYYCMQHLEYPFTFGGGTKLEIK	% Blocking [21]: 48.6%; % Positive cells [22]: 0.28%; % Positive cells [23]: 8.75%; % Positive cells [24]: 0.79%
